Experimental findings from paper PMC6978347 are described below.

First the molecules themselves.
B1: AtNBR1^1–94 (AtNBR1–PB1) [Arabidopsis thaliana] / MBP-tagged wild-type AtNBR1–PB1^1–94 [Arabidopsis thaliana] (parent)
chain 1: MESTANALVVKVSYGGVLRRFRVPVKANGQLDLEMAGLKEKIAALFNLSADAELSLTYSDEDGDVVALVDDNDLFDVTNQRLKFLKINVNAGVS
chain 2: B1 chain 1

Variants of B1 are the subject of this experiment. The experiment can be described thus: pull-down (MBP pulldown, band quantification). The settings on record: with MBP-tagged wild-type AtNBR1–PB1^1–94 [Arabidopsis thaliana];; read off a plot.
chain 1 MESTANALVVKVSYGGVLRRFRVPVKANGQLDLEMAGLKEKIAALFNLSADAELSLTYSAEAGDVVALVDDNDLFDVTNQRLKFLKINVNAGVS [chain 1 D60A D62A]: the ratio to parent came to 0.06. For chain 1 MESTANALVVKVSYGGVLRRFRVPVKANGQLDLEMAGLKEKIAALFNLSADAELSLTYSDEDGAVVALVDDNDLFDVTNQRLKFLKINVNAGVS [chain 1 D64A], the ratio to parent is 0.27. Turning to chain 1 MESTANALVVKVSYGGVLAAFRVPVKANGQLDLEMAGLKEKIAALFNLSADAELSLTYSDEDGDVVALVDDNDLFDVTNQRLKFLKINVNAGVS [chain 1 R19A R20A], the ratio to parent worked out at 0.01.

chain 1 MESTANALVVKVSYGGVLRRFRVPVKANGQLDLEMAGLKEKIAALFNLSADAELSLTYSDADGDVVALVDDNDLFDVTNQRLKFLKINVNAGVS [chain 1 E61A]: the ratio to parent came out at 0.22. To chain 1 MESTANALVVAVSYGGVLRRFRVPVKANGQLDLEMAGLKEKIAALFNLSADAELSLTYSAEDGDVVALVDDNDLFDVTNQRLKFLKINVNAGVS [chain 1 K11A D60A] belongs 0.04; to chain 1 MESTANALVVAVSYGGVLRRFRVPVKANGQLDLEMAGLKEKIAALFNLSADAELSLTYSDEDGDVVALVDDNDLFDVTNQRLKFLKINVNAGVS [chain 1 K11A], 0.32.
